{
  "source": "paper PMC8564726",
  "about": "“Heterodimerization of H3K9 histone methyltransferases G9a and GLP activates methyl reading and writing capabilities” (The Journal of Biological Chemistry, 2021)",
  "molecules": {"B1": {"name": "G9a-G9a: homodimer of G9a truncated to the C-terminal ANK and SET domains (ANK-SET) (protein)", "chain": "MRGLPRGRGLMRARGRGRAAPTGGRGRGRGGAHRGRGRPRSLLSLPRAQASWAPQLPAGLTGPPVPCLPSQGEAPAEMGALLLEKEPRGAAERVHSSLGDTPQSEETLPKANPDSLEPAGPSSPASVTVTVGDEGADTPVGAASLIGDEPESLEGDGGRIVLGHATKSFPSSPSKGGACPSRAKMSMTGAGKSPPSVQSLAMRLLSMPGAQGAATAGPEPSPATTAAQEGQPKVHRARKTMSKPSNGQPPIPEKRPPEVQHFRMSDDMHLGKVTSDVAKRRKLNSGSLSEDLGSAGGSGDIILEKGEPRPLEEWETVVGDDFSLYYDAYSVDERVDSDSKSEVEALAEQLSEEEEEEEEEEEEEEEEEEEEEEEEEDEESGNQSDRSGSSGRRKAKKKWRKDSPWVKPSRKRRKREPPRAKEPRGVNGVGSSGPSEYMEVPLGSLELPSEGTLSPNHAGVSNDTSSLETERGFEELPLCSCRMEAPKIDRISERAGHKCMATESVDGELLGCNAAILKRETMRPSSRVALMVLCEAHRARMVKHHCCPGCGYFCTAGTFLECHPDFRVAHRFHKACVSQLNGMVFCPHCGEDASEAQEVTIPRGDGGTPPIGTAAPALPPLAHDAPGRADTSQPSARMRGHGEPRRPPCDPLADTIDSSGPSLTLPNGGCLSAVGLPPGPGREALEKALVIQESERRKKLRFHPRQLYLSVKQGELQKVILMLLDNLDPNFQSDQQSKRTPLHAAAQKGSVEICHVLLQAGANINAVDKQQRTPLMEAVVNNHLEVARYMVQLGGCVYSKEEDGSTCLHHAAKIGNLEMVSLLLSTGQVDVNAQDSGGWTPIIWAAEHKHIDVIRMLLTRGADVTLTDNEENICLHWASFTGSAAIAEVLLNAQCDLHAVNYHGDTPLHIAARESYHDCVLLFLSRGANPELRNKEGDTAWDLTPERSDVWFALQLNRKLRLGVGNRAVRTEKIICRDVARGYENVPIPCVNGVDGEPCPEDYKYISENCETSTMNIDRNITHLQHCTCVDDCSSSNCLCGQLSIRCWYDKDGRLLQEFNKIEPPLIFECNQACSCWRSCKNRVVQSGIKVRLQLYRTAKMGWGVRALQTIPQGTFICEYVGELISDAEADVREDDSYLFDLDNKDGEVYCIDARYYGNISRFINHLCDPNIIPVRVFMLHQDLRFPRIAFFSSRDIRTGEELGFDYGDRFWDIKSKYFTCQCGSEKCKHSAEAIALEQSRLARLDPHPELLPDLSSLPPINT"}},
  "key": {"[1]": {"test_system": "H3K9me2 dimethylated mononucleosomes", "test": "Fluorescence polarization binding to H3K9me2 mononucleosome", "text": "(§1) Histone proteins and nucleosomes were purified as described ([11], [26]) with modifications (see Supporting methods). For fluorescence polarization, nucleosomes were reconstituted with a 5ʹ fluoresceinated DNA template. H3K9 dimethylation was installed via Methyl-Lysine Analog (MLA) technology as described ([10], [26]). K9 MLA-monomethylated H3 was purchased from Active Motif. H3K27A was introduced by site-directed mutagenesis and purified as described ([26]).\n(§2) Polarization assays with fluoresceinated H3_1–20 K9me1 or K9me2 peptides, 147 bp 601 DNA template, and core nucleosomes were performed and Kd values estimated as described ([11]) with the following modifications: The reaction buffer was 100 mM Tris pH 8, 100 mM KCl, 1 mM MgCl2, 20 μM ZnSO4, 10 mM BME, 0.1% NP-40. The concentration of peptides and nucleosomes was 150 nM and 200 nM for DNA. Polarization measurements were conducted on a Biotek Cytation 5 (peptide and nucleosome) or Molecular Devices Spectramax (DNA) plate reader with low-volume plates (Corning) in either 10 μl (peptide, nucleosome) or 40 μl (DNA) total volume."}, "H3_1–20 K9me2 peptide": {"test_system": "H3_1–20 K9me2 peptide", "test": "Fluorescence polarization binding to H3K9me2 peptide", "conditions": "listed as G9a", "method": "as §2"}, "H3_1–20 K9me1 peptide": {"test_system": "H3_1–20 K9me1 peptide", "test": "Fluorescence polarization binding to H3K9me1 peptide", "conditions": "listed as G9a", "method": "as §2"}, "[2]": {"test_system": "H3K9me1 monomethylated mononucleosomes", "test": "Fluorescence polarization binding to H3K9me1 mononucleosome", "text": "as §1, §2"}, "H3_1–20 peptide": {"test_system": "H3_1–20 peptide", "test": "H3 tail peptide methylation kinetics (multiple turnover)", "assay_type": "biochemical", "conditions": "Michaelis–Menten, 9 μM 3H-SAM + 1000 μM cold SAM, 0.4 to 0.8 μM enzyme, pH 8, duplicates, 95% CI: G9a-G9a 24.6-34.6, GLP-GLP 9.5-15.5, G9a-GLP 26.0-34.5, G9aS-GLP 20.5-28.3, listed as G9a", "method": "Substrate peptides or nucleosomes were mixed in a solution containing 9 μM tritiated S-Adenosyl Methionine (SAM, PerkinElmer) cofactor, and reactions were initiated upon addition of 0.4 to 0.8 μM enzyme. Peptide reactions were supplemented with 1000 μM cold SAM to fully saturate the SAM-binding pocket (Fig. S3). Due to signal limitations, nucleosome reactions were not supplemented with SAM (see Supporting methods). Reactions were run in 100 mM Tris pH 8, 100 mM KCl, 1 mM MgCl2, 20 μM ZnSO4, 10 mM BME and quenched with laemmli buffer. Peptide reactions were performed as described ([11]). Nucleosome methylation reactions were read out via autoradiography as described ([11]), except that proteins were separated on an 18% SDS PAGE gel.\nAll methylation reactions (except Fig. S4A) were performed under Multiple Turnover conditions ([25]). To determine initial rates, methylation time courses were traced at various concentrations of H3K9-containing substrate while keeping the concentration of SAM and enzyme constant. Plots of initial rate versus concentration H3K9 substrate measured in duplicate or triplicate were fit to V = Vmax∗[S]/(KM + [S]) using Prism software to extract KM and kcat (or kobs) values as well as the 95% confidence interval bounds of the fit. See Supporting methods for special considerations for nucleosome kinetics."}, "[3]": {"target": "unmethylated (H3K9me0) mononucleosomes", "test": "Fluorescence polarization binding to unmethylated mononucleosome", "conditions": "147 bp 601 DNA 5ʹ fluorescein-labeled nucleosomes, 150 nM, pH 8, 100 mM KCl, 0.1% NP-40, 95% CI (μM): G9a 6.4-8.6, G9a-GLP 5.6-7.6, GLP-GLP 17.4-41.5, read-out: Kd, unmethylated (me0) mononucleosome", "text": "as §1, §2"}},
  "note": "Entries after “also recorded” stand apart in the source; their conditions may differ.",
  "data": [
    {"molecule": "B1", "values": [
      {"measurement": "binding to H3K9me2 nucleosomes, in words", "setting": "[1]", "result": "decreases compared with unmethylated nucleosomes"},
      {"measurement": "affinity for H3K9me2 peptide, in words", "setting": "H3_1–20 K9me2 peptide", "result": "no discernable affinity for me1 or me2 peptides; also recorded: does not recognize H3K9me1/2 peptides"},
      {"measurement": "affinity for H3K9me1 peptide, in words", "setting": "H3_1–20 K9me1 peptide", "result": "no discernable affinity for me1 or me2 peptides; also recorded: does not recognize H3K9me1/2 peptides"},
      {"measurement": "binding to H3K9me1 nucleosomes, in words", "setting": "[2]", "result": "decreases compared with unmethylated nucleosomes"},
      {"measurement": "kcat, H3_1–20 peptide", "setting": "H3_1–20 peptide", "result": "~0.55", "unit": "s⁻¹"},
      {"measurement": "Kd", "setting": "[3]", "result": "6 to 7", "unit": "µM"}
    ]}
  ]
}
